Columns and labels:
[1] = test system: F1*sub RNA substrate (template-directed ligation); assay: fraction ligated after 30 min (ligated reads / total reads); higher = more ligase activity; conditions: 42 °C
Method: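 Chip-synthesised pool of F1* ligase ribozyme variants (all single and double substitutions, single, double and triple deletions in the catalytic core and GAA bulge, plus designed variants) was transcribed with T7 and reacted as a pool with excess substrate F1*sub for 30 min at 42 C in 50 mM EPPS pH 8.5, 25 mM MgCl2. Ligated and unligated bands were separated by PAGE, barcoded by RT and deep sequenced; fraction ligated = ligated reads / total reads per variant, relative activity = FL / FL of wild type (0.826). Sequences are the DNA template of the ribozyme.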

[2] = test system: F1*sub RNA substrate (template-directed ligation); assay: fraction ligated after 30 min (ligated reads / total reads); higher = more ligase activity; sequences stand for … in GAGACCGCAACTGAAAAGTTGT…AGTTCTGCACGTAGAAGCAAAAGGC; conditions: 42 °C
Summary of the method: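 Oligo-pool templates underwent PCR amplification, T7 transcription and gel purification to yield ribozyme variants. Gel-separated ligated and unligated bands were converted to complementary DNA with barcoded primers and sequenced on a MiSeq, keeping core bases of quality ≥20. The ratio of ligated reads to total reads gave the fraction ligated for every variant.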

Row | Sequence | fraction ligated [1] | fraction ligated [2]
1 | GAGACCGCAACTGAAAAGTTGTTATCACTTGCGTAAGACACTTTGGATGGGTTGGTTCTGCACGTAGAAGCAAAAGGC [3d1704] | 0.0839 | –
2 | GAGACCGCAACTGAAAAGTTGTTATCACTGTCGTAAGACACTTTGGATGGGTTGGTTCTGCACGTAGAAGCAAAAGGC [3d1463] | 0.0111 | –
3 | GAGACCGCAACTGAAAAGTTGTTATCCTTGTCGTAAGACACTTTGGATGGGTTGGTTCTGCACGTAGAAGCAAAAGGC [3d1120] | 0.00301 | –
4 | GAGACCGCAACTGAAAAGTTGTTATCACTTGTCGTAAGACACTTTGATGGGTTGGTTCTGCACGTAGAAGCAAAAGGC [3d2270] | 0.00433 | –
5 | GAGACCGCAACTGAAAAGTTGTTACACTTGTCGTAAGACACTTTGGATGGGTTGGTTCTGCACGTAGAAGCAAAAGGC [3d737] | 0.00325 | –
6 | GAGACCGCAACTGAAAAGTTGTTTCACTTGTCGTAAGACACTTTGGATGGGTTGGTTCTGCACGTAGAAGCAAAAGGC [3d507] | 0.00164 | –
7 | GAGACCGCAACTGAAAAGTTGTTATCACTTGTCGTAAGACACTTGGATGGGTTGGTTCTGCACGTAGAAGCAAAAGGC [3d2254] | 0.00633 | –
8 | GAGACCGCAACTGAAAAGTTGTTATCATTGTCGTAAGACACTTTGGATGGGTTGGTTCTGCACGTAGAAGCAAAAGGC [3d1292] | 0.00677 | –
9 | GAGACCGCAACTGAAAAGTTGTTATCACTTGTCGTAAGACACTTTGGTGGGTTGGTTCTGCACGTAGAAGCAAAAGGC [3d2276] | 0.00831 | –
10 | GAGACCGCAACTGAAAAGTTGTTATCACTTGTCTAAGACACTTTGGATGGGTTGGTTCTGCACGTAGAAGCAAAAGGC [3d1901] | 0.0966 | –
11 | GAGACCGCAACTGAAAAGTTGTTATCACTTGTCGTAAGACACTTTGGATGGGTTTGTTCTGCACGTAGAAGCAAAAGGC [s81] | 0.0148 | –
12 | GAGACCGCAACTGAAAAGTTGTTATCACTTGTGTAAGACACTTTGGATGGGTTGGTTCTGCACGTAGAAGCAAAAGGC [3d1809] | 0.0204 | –
13 | GAGACCGCAACTGAAAAGTTGTTATCACTTGTCGTAAGACACTTTGGATGGGTTCGTTCTGCACGTAGAAGCAAAAGGC [s80] | 0.0169 | –
14 | GAGACCGCAACTGAAAAGTTGTTATCACTTGTCGTAAACACTTTGGATGGGTTGGTTCTGCACGTAGAAGCAAAAGGC [3d2104] | 0.0572 | –
15 | TATCATTGTCGTAAACACTTTGGATGGGTTG [3d1236] | – | 0.809
16 | TATCACTTGCGTAAGAACTTGGATGGGTTGA [3d1660] | – | 0.827
17 | TATCACTTGTCGTAAGAATTGGATGGGTTGA [3d2152] | – | 0.785
18 | TATCACTTGTCTAAGACACTTTGGAGGGTTA [3d1896] | – | 0.134
19 | TATCCTTGTCGTAAGCACTTTGGTGGGTTGA [3d1070] | – | 0.0868
20 | TATCACTGTCGAAACACTTTGGATGGGTTGA [3d1373] | – | 0.83
21 | TATCATGTCGTAAACACTTTGGATGGGTTGA [3d1128] | – | 0.765
22 | TTCATTGTCGTAAGACATTTGGATGGGTTGA [3d328] | – | 0.5
23 | TATCCTTGTCGTAGACACTTTGATGGGTTGA [3d1049] | – | 0.804
24 | TATCACTTGTCGTAAGACACTTTGAGGTTGA [3d2264] | – | 0.0133

Row | Sequence | fraction ligated [1] | fraction ligated [2]
25 | TATCACTTTCTAAGACACTTGGATGGGTTGA [3d1486] | – | 0.767
26 | TATCACTTTCGTAAGACACTTTGAGGGTTGA [3d1570] | – | 0.0593
27 | TATCACTTGTGAAGACACTTTGGATGGGTTA [3d1729] | – | 0.823
28 | TATCACTTGTCGAGCACTTTGGATGGGTTGA [3d1904] | – | 0.749
29 | TATCACTTGTCTAAGACATTTGGAGGGTTGA [3d1874] | – | 0.0252
30 | TACACTTGTCGTAAACCTTTGGATGGGTTGA [3d673] | – | 0.0569
31 | TATCACTTGTGAAGACACTTTGGATGGTTGA [3d1728] | – | 0.243
32 | TATCACTTGTCGTAAGACCTTTGTGGGTTGA [3d2191] | – | 0.0153
33 | TATCACTTGTCGTAAACCTTTGGATGGTTGA [3d2071] | – | 0.256
34 | TCACTTGTCGTAAGCACTTTGGATGGGTTGA [3d13] | – | 0.608
35 | ATCACTTGTCGTAAGACACTTTGATGGGTTG [3d265] | – | 0.518
36 | TACACTTTCGTAAGCACTTTGGATGGGTTGA [3d590] | – | 0.0355
37 | TACCTTGTCGTAAACACTTTGGATGGGTTGA [3d535] | – | 0.418
38 | TACACTGTCGTAAGACACTTTGGATGGGTTA [3d583] | – | 0.069
39 | TACATTGTCGTAAGACACTTTGGATGGTTGA [3d563] | – | 0.303
40 | TATCACTTGTCGTAGCACTTTGGATGGGTTGA [2d223] | – | 0.823
41 | TATACTTGTCGTAAGACCTTTGGATGGGTTA [3d916] | – | 0.059
42 | TATCACTTGTCGTAAACACTTTGGATGGGTT [3d2103] | – | 0.628
43 | TATCACTTGCTAAGACACTTTGGTGGGTTGA [3d1608] | – | 0.11
44 | TACCTTGTCGTAAGACACTTTGGTGGGTTGA [3d542] | – | 0.744
45 | TACACTTTCTAAGACACTTTGGATGGGTTGA [3d586] | – | 0.0445
46 | TATCACTTGTCTAAGACACTGGATGGGTTGA [3d1878] | – | 0.787
47 | TATCACGTGTAAGACACTTTGGATGGGTTGA [3d1295] | – | 0.829
48 | TTCACTTTCGTAAGCACTTTGGATGGGTTGA [3d360] | – | 0.466

Row | Sequence | fraction ligated [1] | fraction ligated [2]
49 | TATCACTTGTCGTAAGACACTTGGATGGGTTG [2d282] | – | 0.777
50 | TATCACTTTCGTAAGAACTTTGGATGGGTTG [3d1546] | – | 0.868
51 | TATATGTCGTAAGACACTTTGGATGGGTTGA [3d758] | – | 0.57
52 | TATCACTTGTCGTAAGACCTTGATGGGTTGA [3d2184] | – | 0.766
53 | TATCCTTGTCGTAAGACACTTTGATGGGTTG [3d1109] | – | 0.749
54 | TTACTTGTCGTAAGACACTTGGATGGGTTGA [3d291] | – | 0.305
55 | TATCACTTGTCGTGACACTTTGGAGGGTTGA [3d1989] | – | 0.0822
56 | TATCCTTGTCGAAGACACTTTGGTGGGTTGA [3d1037] | – | 0.181
57 | TCCTTGTCGTAAGACACTTTGGATGGGTTGA [3d3] | – | 0.687
58 | TATCACTTTCGAAGACACTTTGGATGGGTTGA [2d149] | – | 0.797
59 | TATCATTGTGTAGACACTTTGGATGGGTTGA [3d1174] | – | 0.856
60 | TATCACTTGCGTAAGACCTTTGGATGGGTTG [3d1673] | – | 0.81
61 | TATCACTTTCGTAAGAACTTTGGATGGGTTA [3d1545] | – | 0.851
62 | TTCACTTGTCGTAAGACCTTTGGATGGGTTGA [2d38] | – | 0.793
63 | TATCACTTGTCGTAACACTTTGGTGGGTTGA [3d1998] | – | 0.0145
64 | TATCACTTGTCGTAGACATTTGGATGGTTGA [3d2032] | – | 0.147
65 | TATCACTTGTCTAAGACCTTTGGATGGGTTA [3d1869] | – | 0.732
66 | TATCACTTGTCGTAGACTTTGGATGGGTTGA [3d2003] | – | 0.814
67 | TACCTTGTCGTAAGACATTTGGATGGGTTGA [3d539] | – | 0.749
68 | ATCACTTGTCTAAGACACTTTGGTGGGTTGA [3d180] | – | 0.0503
69 | TATCACTTGTCGAAACACTTTGGATGGTTGA [3d1922] | – | 0.0984
70 | TATCATTGTCGAAGACACTTTGGATGGTTGA [3d1211] | – | 0.21
71 | TATCACTGTCGTAAGACACTTTGATGGGTTA [3d1451] | – | 0.351
72 | TATCATGTCGTAGACACTTTGGATGGGTTGA [3d1127] | – | 0.817

Row | Sequence | fraction ligated [1] | fraction ligated [2]
73 | TATCACTTGTCGTAAGAACTTTGGGGGTTGA [3d2172] | – | 0.0507
74 | TTCACTGTCGTAAACACTTTGGATGGGTTGA [3d343] | – | 0.8
75 | TTCACTTTCGTAAACACTTTGGATGGGTTGA [3d359] | – | 0.0493
76 | TTCCTTGTCGTAAGAACTTTGGATGGGTTGA [3d307] | – | 0.765
77 | TATCACTTGTGAAGACACTTTGGATGGGTTGA [2d180] | – | 0.853
78 | ATACTTGTCGTAAGACACTTTGGAGGGTTGA [3d63] | – | 0.0364
79 | TACACTTGTGTAAGACCTTTGGATGGGTTGA [3d623] | – | 0.0441
80 | ATCACTTGTCGTAAAACTTTGGATGGGTTGA [3d211] | – | 0.768
81 | TATCACTTGTCGTAAAACTTTGGAGGGTTGA [3d2063] | – | 0.0898
82 | TATACTTTCGTAAGAACTTTGGATGGGTTGA [3d802] | – | 0.778
83 | TATCACTTTCGTAAGACACTTTGATGGGTTG [3d1573] | – | 0.731
84 | TTACTTGTCGTAAGACACTTTGGATGGGTTG [3d297] | – | 0.299
85 | TATCATGTCGTAAGACACTTTGGATGGGTTG [3d1139] | – | 0.784
86 | ATCACTTGTCGTAAGCACTTTGGATGGGTTA [3d229] | – | 0.34
87 | TATACTTGTCGTAAGCACTTTGGATGGGTTG [3d902] | – | 0.502
88 | ATCACTTGTCGTAAACATTTGGATGGGTTGA [3d213] | – | 0.777
89 | TTCACTTGTCGTAGACACTTTGATGGGTTGA [3d436] | – | 0.258
90 | TATCACTTGGTAAGACACTTTGGATGGGTTG [3d1598] | – | 0.809
91 | TATCACTTGTCGTAGACACTTTGGAGGTTGA [3d2052] | – | 0.072
92 | TTCCTTGTCGTAAGACACTTTGGATGGGTTA [3d315] | – | 0.229
93 | TATCACTTTCGTAGACACTTTGGATGGTTGA [3d1516] | – | 0.0829
94 | TATCCTGTCGTAGACACTTTGGATGGGTTGA [3d955] | – | 0.779
95 | TATCACTTGCGTAAGACATTTGGTGGGTTGA [3d1676] | – | 0.0926
